From patent US20220235120A1 (UNIVERSITY OF MARYLAND BALTIMORE, published 2022)

Legend:
[1] = biological target: Clostridium difficile toxin B (TcdB) (Clostridium difficile, UniProt P18177 2-2366); assay: cell-based or functional assay
[2] = biological target: Clostridium difficile toxin A (TcdA) (Clostridium difficile, UniProt P16154 1-2710); assay: cell-based or functional assay
Clostridium difficile toxin A (TcdA), sequence (P16154 whole entry): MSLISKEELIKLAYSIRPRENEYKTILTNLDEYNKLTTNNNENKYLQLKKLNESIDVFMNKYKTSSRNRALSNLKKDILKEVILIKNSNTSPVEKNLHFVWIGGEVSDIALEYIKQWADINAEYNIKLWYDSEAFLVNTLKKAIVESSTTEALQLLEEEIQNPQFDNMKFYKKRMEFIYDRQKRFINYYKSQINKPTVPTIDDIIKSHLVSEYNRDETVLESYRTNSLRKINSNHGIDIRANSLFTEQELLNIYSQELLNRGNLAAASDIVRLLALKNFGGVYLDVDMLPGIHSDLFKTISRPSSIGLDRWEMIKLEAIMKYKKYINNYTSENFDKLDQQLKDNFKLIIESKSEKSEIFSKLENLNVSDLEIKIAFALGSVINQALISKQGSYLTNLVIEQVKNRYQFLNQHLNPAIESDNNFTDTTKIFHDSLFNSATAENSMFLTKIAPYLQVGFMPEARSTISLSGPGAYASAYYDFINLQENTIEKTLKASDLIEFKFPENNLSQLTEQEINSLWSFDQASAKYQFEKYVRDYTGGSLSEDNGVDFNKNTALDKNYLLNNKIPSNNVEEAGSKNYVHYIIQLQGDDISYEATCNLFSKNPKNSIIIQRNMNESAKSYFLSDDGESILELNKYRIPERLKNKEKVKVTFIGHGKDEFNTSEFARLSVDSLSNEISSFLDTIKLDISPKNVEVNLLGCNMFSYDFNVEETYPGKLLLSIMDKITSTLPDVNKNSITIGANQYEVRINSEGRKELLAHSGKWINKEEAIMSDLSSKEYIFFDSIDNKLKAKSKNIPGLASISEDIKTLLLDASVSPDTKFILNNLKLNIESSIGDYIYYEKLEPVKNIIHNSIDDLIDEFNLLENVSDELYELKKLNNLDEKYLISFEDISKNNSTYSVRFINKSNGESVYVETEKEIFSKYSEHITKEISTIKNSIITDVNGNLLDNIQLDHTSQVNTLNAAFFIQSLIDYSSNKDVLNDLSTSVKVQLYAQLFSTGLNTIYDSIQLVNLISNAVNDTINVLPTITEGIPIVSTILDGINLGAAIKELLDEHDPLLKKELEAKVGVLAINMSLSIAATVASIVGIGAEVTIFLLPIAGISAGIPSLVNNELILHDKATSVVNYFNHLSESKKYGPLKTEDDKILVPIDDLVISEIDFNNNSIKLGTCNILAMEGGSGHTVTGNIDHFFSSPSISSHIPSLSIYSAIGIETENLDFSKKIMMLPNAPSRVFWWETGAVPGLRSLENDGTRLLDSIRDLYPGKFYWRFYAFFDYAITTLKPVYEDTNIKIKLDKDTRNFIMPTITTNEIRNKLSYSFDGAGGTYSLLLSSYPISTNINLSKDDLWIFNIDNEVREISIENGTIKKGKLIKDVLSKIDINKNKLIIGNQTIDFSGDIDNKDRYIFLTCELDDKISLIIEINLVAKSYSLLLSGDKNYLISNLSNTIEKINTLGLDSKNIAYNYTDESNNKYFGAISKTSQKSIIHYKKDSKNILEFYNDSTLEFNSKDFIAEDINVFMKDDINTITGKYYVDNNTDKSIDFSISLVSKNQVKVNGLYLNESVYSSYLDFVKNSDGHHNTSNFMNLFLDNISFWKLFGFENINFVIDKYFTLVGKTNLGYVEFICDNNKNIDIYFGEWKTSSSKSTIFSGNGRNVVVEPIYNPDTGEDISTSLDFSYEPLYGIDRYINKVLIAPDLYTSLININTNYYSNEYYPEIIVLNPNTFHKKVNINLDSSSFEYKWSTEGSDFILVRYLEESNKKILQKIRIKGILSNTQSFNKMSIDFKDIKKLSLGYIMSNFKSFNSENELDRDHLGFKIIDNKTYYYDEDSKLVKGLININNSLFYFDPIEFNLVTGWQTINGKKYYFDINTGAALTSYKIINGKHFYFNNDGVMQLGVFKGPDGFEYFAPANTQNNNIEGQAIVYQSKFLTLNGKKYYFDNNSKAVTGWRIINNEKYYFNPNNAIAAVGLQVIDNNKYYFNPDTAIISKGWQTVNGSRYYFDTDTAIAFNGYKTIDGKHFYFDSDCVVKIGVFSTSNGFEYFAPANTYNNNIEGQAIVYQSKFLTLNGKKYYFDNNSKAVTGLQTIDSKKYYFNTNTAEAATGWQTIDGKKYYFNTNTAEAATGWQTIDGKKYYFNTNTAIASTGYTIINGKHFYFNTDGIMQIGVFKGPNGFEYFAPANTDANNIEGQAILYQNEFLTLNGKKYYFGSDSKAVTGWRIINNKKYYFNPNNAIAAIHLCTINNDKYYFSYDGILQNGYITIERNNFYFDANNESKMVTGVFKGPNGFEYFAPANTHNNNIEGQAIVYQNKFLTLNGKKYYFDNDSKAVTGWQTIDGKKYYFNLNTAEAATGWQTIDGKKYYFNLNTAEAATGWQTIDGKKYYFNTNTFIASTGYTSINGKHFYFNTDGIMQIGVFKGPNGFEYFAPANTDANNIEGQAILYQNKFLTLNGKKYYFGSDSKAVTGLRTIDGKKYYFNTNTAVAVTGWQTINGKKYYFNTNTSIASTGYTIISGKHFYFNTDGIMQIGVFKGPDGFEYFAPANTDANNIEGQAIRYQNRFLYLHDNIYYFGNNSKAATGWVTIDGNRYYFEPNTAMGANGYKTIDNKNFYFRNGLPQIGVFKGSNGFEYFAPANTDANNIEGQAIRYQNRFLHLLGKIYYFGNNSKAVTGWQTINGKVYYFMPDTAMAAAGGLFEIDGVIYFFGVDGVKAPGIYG

Clostridium difficile toxin B (TcdB), sequence (P18177 2-2366 limits assumed): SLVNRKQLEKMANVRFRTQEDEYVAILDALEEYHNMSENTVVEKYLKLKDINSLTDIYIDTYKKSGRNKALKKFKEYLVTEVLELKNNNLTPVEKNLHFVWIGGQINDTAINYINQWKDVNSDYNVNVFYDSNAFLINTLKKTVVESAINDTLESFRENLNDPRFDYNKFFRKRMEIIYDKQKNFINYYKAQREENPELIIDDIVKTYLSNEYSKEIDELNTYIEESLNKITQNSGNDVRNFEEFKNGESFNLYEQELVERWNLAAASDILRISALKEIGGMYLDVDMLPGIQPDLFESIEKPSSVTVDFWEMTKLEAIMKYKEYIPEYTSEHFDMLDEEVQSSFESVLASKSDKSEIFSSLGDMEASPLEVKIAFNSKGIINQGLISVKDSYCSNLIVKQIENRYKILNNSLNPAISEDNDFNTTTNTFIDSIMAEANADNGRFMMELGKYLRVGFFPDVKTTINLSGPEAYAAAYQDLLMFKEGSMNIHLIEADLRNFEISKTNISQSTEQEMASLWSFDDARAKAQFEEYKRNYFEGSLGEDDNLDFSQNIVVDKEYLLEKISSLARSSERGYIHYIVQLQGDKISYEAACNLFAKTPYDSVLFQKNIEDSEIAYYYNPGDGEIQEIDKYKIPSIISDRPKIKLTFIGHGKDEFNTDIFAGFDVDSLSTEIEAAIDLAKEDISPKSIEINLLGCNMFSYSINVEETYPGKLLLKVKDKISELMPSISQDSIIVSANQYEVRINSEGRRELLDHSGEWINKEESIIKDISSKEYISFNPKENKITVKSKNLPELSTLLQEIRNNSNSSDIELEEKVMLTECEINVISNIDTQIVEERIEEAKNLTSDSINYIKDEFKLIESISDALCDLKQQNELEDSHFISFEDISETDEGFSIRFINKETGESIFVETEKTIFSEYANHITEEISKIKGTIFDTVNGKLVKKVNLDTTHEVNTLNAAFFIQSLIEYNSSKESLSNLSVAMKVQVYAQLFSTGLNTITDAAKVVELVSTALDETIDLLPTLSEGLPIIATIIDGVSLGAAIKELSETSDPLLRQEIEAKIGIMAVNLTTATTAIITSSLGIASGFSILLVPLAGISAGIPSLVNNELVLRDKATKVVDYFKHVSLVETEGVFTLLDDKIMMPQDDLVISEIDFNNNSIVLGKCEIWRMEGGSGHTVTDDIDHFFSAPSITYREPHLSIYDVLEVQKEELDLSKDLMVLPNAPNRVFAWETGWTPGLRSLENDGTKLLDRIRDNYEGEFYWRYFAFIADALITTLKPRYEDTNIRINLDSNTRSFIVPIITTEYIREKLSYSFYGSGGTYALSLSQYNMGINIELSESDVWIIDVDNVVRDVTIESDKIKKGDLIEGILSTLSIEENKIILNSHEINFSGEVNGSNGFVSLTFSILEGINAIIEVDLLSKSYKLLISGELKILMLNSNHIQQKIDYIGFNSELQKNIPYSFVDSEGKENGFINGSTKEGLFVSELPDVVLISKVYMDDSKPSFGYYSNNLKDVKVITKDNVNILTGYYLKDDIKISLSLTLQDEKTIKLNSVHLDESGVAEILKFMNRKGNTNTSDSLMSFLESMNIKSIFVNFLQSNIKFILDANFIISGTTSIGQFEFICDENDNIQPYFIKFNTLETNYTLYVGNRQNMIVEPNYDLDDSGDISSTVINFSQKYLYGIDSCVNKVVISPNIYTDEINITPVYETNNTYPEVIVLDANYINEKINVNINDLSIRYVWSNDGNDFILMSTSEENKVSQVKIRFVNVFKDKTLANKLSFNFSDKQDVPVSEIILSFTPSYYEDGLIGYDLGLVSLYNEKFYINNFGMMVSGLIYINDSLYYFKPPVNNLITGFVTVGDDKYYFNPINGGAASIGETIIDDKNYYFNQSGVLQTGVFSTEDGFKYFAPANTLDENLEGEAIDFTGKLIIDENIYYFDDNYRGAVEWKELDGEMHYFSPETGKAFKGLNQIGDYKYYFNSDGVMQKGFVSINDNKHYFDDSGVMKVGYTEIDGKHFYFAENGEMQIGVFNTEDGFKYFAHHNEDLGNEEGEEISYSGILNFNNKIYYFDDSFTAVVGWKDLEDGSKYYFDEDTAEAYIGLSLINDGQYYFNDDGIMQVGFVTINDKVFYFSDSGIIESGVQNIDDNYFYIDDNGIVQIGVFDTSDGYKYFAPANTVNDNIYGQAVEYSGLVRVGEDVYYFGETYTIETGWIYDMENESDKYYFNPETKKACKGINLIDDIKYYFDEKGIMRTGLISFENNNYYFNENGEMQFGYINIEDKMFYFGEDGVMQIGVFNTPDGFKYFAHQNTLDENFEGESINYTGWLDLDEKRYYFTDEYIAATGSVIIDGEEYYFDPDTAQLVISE

B1: FZ003 binding agent (tetra-specific, octameric VHH-IgG1 with CDR-grafted humanized VHHs) (bispecific antibody)
light: EVQLLESGGGLVQPGGSLRLSCAASGFTFSDYVMTWVRQAPGKGPEWIATINTDGSTMRDDSTKGRFTISRDNSKNTLYLQMNSLRAEDTAVYYCARGRVISASAIRGAVRGQGTLVTVSSGGGGSGGGGSGGGGSEVQLLESGGGLVQPGGSLRLSCAASGSIAGFETVTWSRQAPGKSLQWVASMTKTNNEIYSDSVKGRFTISRDNSKNTVYLQMNSLRAEDTAVYYCKGPELRGQGTLVTVSSRTVAAPSVFIFPPSDEQLKSGTASVVCLLNNFYPREAKVQWKVDNALQSGNSQESVTEQDSKDSTYSLSSTLTLSKADYEKHKVYACEVTHQGLSSPVTKSFNRGEC
heavy: not shown
[1]
  survival in mouse systemic toxin challenge (toxins pre-incubated with antibody): > 1000 fold more potent than the Merck antibody
[2]
  survival in mouse systemic toxin challenge (toxins pre-incubated with antibody): > 1000 fold more potent than the Merck antibody
